From patent US12209135B2, “Anti-CD45 antibodies and conjugates thereof” (priority 2019, dated 2025)
Positions count from the first letter of the chain named.

T1: rhesus CD45 ectodomain (Macaca mulatta, UniProt A0A1D5R142)
T1 construct: purified human, rhesus or cynomolgus CD45 ectodomain
T1 sequence (A0A1D5R142 26-581): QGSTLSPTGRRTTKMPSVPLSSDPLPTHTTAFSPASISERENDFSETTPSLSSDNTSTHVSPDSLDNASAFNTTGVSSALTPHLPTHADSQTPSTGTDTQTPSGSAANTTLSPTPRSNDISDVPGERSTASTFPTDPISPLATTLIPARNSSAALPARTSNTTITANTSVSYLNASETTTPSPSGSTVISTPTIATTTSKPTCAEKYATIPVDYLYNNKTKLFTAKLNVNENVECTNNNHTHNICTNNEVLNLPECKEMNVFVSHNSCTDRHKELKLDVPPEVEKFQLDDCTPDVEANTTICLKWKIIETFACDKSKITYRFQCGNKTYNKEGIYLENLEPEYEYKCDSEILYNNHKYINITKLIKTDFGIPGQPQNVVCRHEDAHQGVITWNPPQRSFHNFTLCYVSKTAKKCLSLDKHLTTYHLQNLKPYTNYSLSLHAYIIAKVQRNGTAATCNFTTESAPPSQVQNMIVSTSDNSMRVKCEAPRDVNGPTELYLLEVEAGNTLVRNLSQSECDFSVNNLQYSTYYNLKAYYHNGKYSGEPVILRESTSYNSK

T2: human CD45 ectodomain (Homo sapiens, UniProt P08575)
T2 construct: purified human, rhesus or cynomolgus CD45 ectodomain
T2 sequence (P08575 26-577): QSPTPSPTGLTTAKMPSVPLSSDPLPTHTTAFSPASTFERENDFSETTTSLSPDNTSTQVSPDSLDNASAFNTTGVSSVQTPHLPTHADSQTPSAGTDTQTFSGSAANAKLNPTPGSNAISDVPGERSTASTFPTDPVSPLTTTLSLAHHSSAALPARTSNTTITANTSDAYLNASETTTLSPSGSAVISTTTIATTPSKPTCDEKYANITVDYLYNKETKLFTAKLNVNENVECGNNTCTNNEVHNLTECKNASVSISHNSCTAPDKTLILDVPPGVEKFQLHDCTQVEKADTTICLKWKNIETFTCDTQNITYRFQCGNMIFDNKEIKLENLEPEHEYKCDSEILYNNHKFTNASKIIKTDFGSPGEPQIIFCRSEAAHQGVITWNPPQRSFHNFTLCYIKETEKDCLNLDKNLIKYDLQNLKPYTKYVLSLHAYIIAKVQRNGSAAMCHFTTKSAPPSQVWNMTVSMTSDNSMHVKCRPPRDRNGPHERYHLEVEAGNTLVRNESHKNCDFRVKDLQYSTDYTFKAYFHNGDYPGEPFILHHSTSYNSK

B1: Ab3: affinity matured human anti-CD45 IgG derived from Ab1; VH SEQ ID NO:21, VL SEQ ID NO:25 (antibody, V domains shown)
VH: QVQLVESGGGLVKPGGSLRLSCAASGFTFGGYSMNWVRQAPGKGLEWVSYISISGATITYADSVKGRFTISRDNAKNSLYLQMNSLRAEDTAVYYCARGGQYYYDSSDYGEVAFDIWGQGTMVTVSS
VL: DIVMTQSPLSLPVTPGEPASISCRSSQSLVSNGYNYLDWYLQKPGQSPQLLIYFGSSRASGVPDRFSGSGSGTDFTLKISRVEAEDVGVYYCMQRRRTPPFTFGGGTKVEIK
B2: Ab7: variant of Ab3 with asparagine to serine substitution in CDR-L1; VH SEQ ID NO:61, VL SEQ ID NO:65 (antibody, V domains shown)
VH: B1 VH
VL: B1 VL with N32S
B3: Ab2: affinity matured human anti-CD45 IgG derived from Ab1; VH SEQ ID NO:11, VL SEQ ID NO:15 (antibody, V domains shown)
VH: B1 VH with Q1E, K13Q, G30E, G31A, I53L, T59H
VL: DIVMTQSPLSLPVTPGEPASISCRSSQSLVSNGYNYLDWYLQKPGQSPQLLIYFGSSRASGVPDRFSGSGSGTDFTLKISRVEAEDVGVYYCMQRRRTPWSFGGGTKVEIK
B4: Ab6: affinity matured human anti-CD45 IgG derived from Ab1; VH SEQ ID NO:51, VL SEQ ID NO:55 (antibody, V domains shown)
VH: B1 VH with Q1E, K13Q, G30E, G31A, I53L, T59H, D105T, M122L
VL: B3 VL with M4L, N32S
B5: Ab5: variant of Ab4 with asparagine to serine substitution in CDR-L1; VH SEQ ID NO:41, VL SEQ ID NO:45 (antibody, V domains shown)
VH: B1 VH with Q1E, K13Q, G30E, G31A, I53L, T59H, D105T
VL: B3 VL with N32S
B6: AbC: affinity matured variant of parent clone C; VH SEQ ID NO:91, VL SEQ ID NO:95 (antibody, V domains shown)
VH: EVQLVESGGGLVQPGGSLRLSCAASGFTFNNYWMTWVRQAPGKGLEWVSSISSSGGSIYYPDSVKDRFTISRDNAKNSLYLQMNSLRAEDMAVYYCARLYYYDGGGDAWGQGTLVTVSS
VL: GIQMTQSPSSLSASVGDRVTITCKASQDINKYLDWYQQKPGKAPKLLIYNTNNLHTGIPSRFSGSGSGTDYTLTISSLQPEDFATYYCLQHISRWTFGGGTKVEIK
B7: AbB: affinity matured variant of parent clone B; VH SEQ ID NO:81, VL SEQ ID NO:85 (antibody, V domains shown)
VH: EVQLVESGGGLVQPGGSLRLSCAASGFTFTNFWMAWIRQAPGKGLEWVASISSSGGSIYYPDSVKDRFTISRDNSKNTLYLQMNSLRAEDTAVYYCVKFHHYSGGGDAWGQGTLVTVSS
VL: B6 VL with G1D, D28N, Y49H, N50Y, I92S
B8: AbA: humanized and affinity matured variant of parent clone A; VH SEQ ID NO:71, VL SEQ ID NO:75 (antibody, V domains shown)
VH: EVQLLESGGGLVQPGGSLRLSCAASGFTFNNYWMTWVRQAPGKGLEWVSSISSSGGSIYYPDRVKGRFTISRDNSKNTLYLQMNSLRAEDTAVYYCARDERWAGAMDAWGQGTTVTVSS
VL: DIQMTQSPSSLSASVGDRVTITCKASQNINKNLDWYQQKPGKAPKLLIYETNNLQTGVPSRFSGSGSGTDFTLTISSLQPEDFATYYCYQHNSRFTFGQGTKLEIK

Test system: not listed separately
Experiment: Two-week thermal / pH stress stability by HIC and peptide mapping
Format: physicochemical
Details: 4° C., 25° C., 40° C. for 15 days; high pH treatment
Description: A two-week stability assay was performed by incubating Ab3 and Ab4 at 4° C., 25° C., and 40° C. for 15 days, after which the antibodies were analyzed by […] (HIC). Briefly, 25 micrograms of the indicated antibody were injected onto a Tosoh TSKgel Phenyl-5PW 7.5 mm ID×7.5 cm 10-micron column (Catalog #07573) on a Waters ARC HPLC/UPLC system. […] This hydrophilic pre-peak was indicative of a potential site of post-translational modification (e.g., oxidation or deamidation). Peptide mapping was subsequently performed to identify which amino acids were modified in each antibody upon exposure to stress (high pH, low pH, and oxidative stress). The peptide mapping analysis identified a potential site of deamidation at an asparagine in CDR-L1 (N30 position) in response to high pH conditions (e.g., pH 8 or greater).
Accordingly, variants of Ab3 and Ab4 were generated in which the asparagine in CDR-L1 (e.g., at position 30B) was substituted with a serine. The resulting antibodies were named Ab7 and Ab5 respectively.

| Molecule | HIC hydrophilic pre-peak (deamidated species) |
| --- | --- |
| B1 | hydrophilic pre-peak that increased as a function of thermal stress |

Target: T1, rhesus CD45 ectodomain
Experiment: Biolayer interferometry (BLI, Octet) binding of immobilized IgG to purified CD45 ectodomain
Details: Table 2, Rhesus CD45
Description: (§1) Antibody binding studies were performed at 25° C. in 1×PBS supplemented with 0.1% w/v bovine serum albumin with a Pall ForteBio Octet Red96 using biolayer interferometry (BLI).
The apparent monovalent affinity (KD), apparent association rate (KON), and apparent dissociation rate (KOFF) were determined by local full fitting with a 1:1 binding model as calculated by ForteBio data analysis software version 10 of each IgG to purified human, cynomolgus or rhesus CD45 ectodomain. […] Binding was confirmed using […]

| Molecule | Kdis [s⁻¹] | Kon [M⁻¹ s⁻¹] |
| --- | --- | --- |
| B1 | 0.000222 | 135000 |
| B2 | 0.000544 | 124000 |
| B3 | 0.000192 | 135000 |
| B4 | 0.000175 | 122000 |
| B5 | 0.000193 | 113000 |

Same assay, conditions: Table 2, Rhesus CD45; 50 nM antigen (Ab1: 300 nM)

| Molecule | Kd [nM] |
| --- | --- |
| B1 | 1.65 |
| B2 | 4.39 |
| B3 | 1.42 |
| B4 | 1.44 |
| B5 | 1.71 |

Target: T2, human CD45 ectodomain
Experiment: as above
Details: BLI / Octet
Description: as §1
(§2) The apparent monovalent affinity (KD), apparent association rate (KON), and apparent dissociation rate (KOFF) were determined by local full fitting with a 1:1 binding model as calculated by ForteBio data analysis software version 10 of each IgG to purified human, cynomolgus or rhesus CD45 ectodomain. […] Binding was confirmed using
Briefly, antibody binding studies were performed at 25° C. in 1×PBS supplemented with 0.1% w/v bovine serum albumin with a PALL FORTEBIO OCTET RED96 using biolayer interferometry (BLI). Each purified antibody was immobilized onto anti-human Fc biosensors (AHQ; PALL FORTEBIO 18-5001) and incubated with 100 nM of purified human or 300 nM of cynomolgus CD45 ectodomain.
(§3) The apparent monovalent affinity (KD), apparent association rate (KON), and apparent dissociation rate (KDIS or KOFF) were determined by local full fitting with a 1:1 binding model as calculated by FORTEBIO data analysis software version 10. […] Each of the selected humanized antibodies AbA, AbB, and AbC was able to cross react with human and cynomolgus CD45.

| Molecule | CD45 binding compared with parent (qualitative) |
| --- | --- |
| B2 | did not alter CD45 binding |
| B5 | did not alter CD45 binding |

Same assay, conditions: Table 2, Human CD45

| Molecule | Kdis [s⁻¹] | Kon [M⁻¹ s⁻¹] |
| --- | --- | --- |
| B1 | 0.000225 | 260000 |
| B2 | 0.000615 | 264000 |
| B3 | 2.8e-05 | 245000 |
| B4 | 1.73e-05 | 242000 |
| B5 | 3.36e-05 | 233000 |

Same assay, conditions: Table 11, Human CD45

| Molecule | KON [M⁻¹ s⁻¹] | Kdis [s⁻¹] |
| --- | --- | --- |
| B6 | 50800 | 0.000149 |
| B7 | 43800 | 0.000239 |
| B8 | 50300 | 0.000181 |

Same assay, conditions: text b859

| Molecule | improved affinity over the parent clone |
| --- | --- |
| B6 | greater than 4 fold |

Test system: cynomolgus CD45 ectodomain
Sequence (as listed by the source): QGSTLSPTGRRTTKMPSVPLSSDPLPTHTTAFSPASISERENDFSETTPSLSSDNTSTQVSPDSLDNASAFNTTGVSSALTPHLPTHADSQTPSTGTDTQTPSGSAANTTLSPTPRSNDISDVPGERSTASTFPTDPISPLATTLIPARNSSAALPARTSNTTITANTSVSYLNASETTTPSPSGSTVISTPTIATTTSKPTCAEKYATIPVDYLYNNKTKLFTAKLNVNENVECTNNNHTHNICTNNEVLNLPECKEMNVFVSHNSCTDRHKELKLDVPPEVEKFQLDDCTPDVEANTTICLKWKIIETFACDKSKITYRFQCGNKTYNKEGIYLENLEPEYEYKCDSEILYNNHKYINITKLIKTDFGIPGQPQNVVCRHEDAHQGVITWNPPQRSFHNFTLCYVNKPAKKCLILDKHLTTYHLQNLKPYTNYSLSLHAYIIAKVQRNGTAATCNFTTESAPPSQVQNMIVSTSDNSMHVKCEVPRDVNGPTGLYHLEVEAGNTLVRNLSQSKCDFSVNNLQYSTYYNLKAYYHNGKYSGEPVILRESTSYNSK
Experiment: as above
Details: Table 2, Cynomolgus CD45
Description: as §1, §2
Briefly, antibody binding studies were performed at 25° C. in 1×PBS supplemented with 0.1% w/v bovine serum albumin with a PALL FORTEBIO OCTET RED96 using biolayer interferometry (BLI). […]
as §3

| Molecule | Kdis [s⁻¹] | Kon [M⁻¹ s⁻¹] |
| --- | --- | --- |
| B1 | 0.000192 | 120000 |
| B2 | 0.000537 | 127000 |
| B3 | 0.000129 | 119000 |
| B4 | 0.000154 | 118000 |
| B5 | 0.000164 | 117000 |

Same assay, conditions: Table 2, Cynomolgus CD45; 50 nM antigen (Ab1: 300 nM)

| Molecule | Kd [nM] |
| --- | --- |
| B1 | 1.61 |
| B2 | 4.24 |
| B3 | 1.08 |
| B4 | 1.3 |

Same assay, conditions: Table 11, Cyno CD45

| Molecule | KON [M⁻¹ s⁻¹] | Kdis [s⁻¹] |
| --- | --- | --- |
| B6 | 11100 | 0.000282 |
| B7 | 8160 | 0.00042 |
| B8 | 9440 | 0.000322 |

Same assay, conditions: Table 11, Cyno CD45; 300 nM antigen

| Molecule | Kd [nM] |
| --- | --- |
| B6 | 25.3 |
| B7 | 51.5 |
| B8 | 34.1 |
